The results in this text go back to the supplement of paper PMC7125110.

First the molecules themselves.
B1: glmS ribozyme (parent)
chain: AUAAAAGCGCCAGAACUACAGAAAUGUAGUUGACGAGGAGGAGGUUUAUCGAAUUUUCGGCGGAUGCCUCCAAA

Conditions in all cases: with glucosamine-6-phosphate
Variants of B1 are the subject of series [1]. Nature of the series: self-cleavage kobs at 40 uM GlcN6P; higher = faster cleavage; RNA array. Summed up: (§1)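 Ribozyme variants carrying barcodes were transcribed in situ on sequenced MiSeq chips by E. coli RNA polymerase and tracked at 37 °C with a hybridised Cy3 probe. They were exposed to 40 μM to 10 mM glucosamine-6-phosphate in HEPES/KCl/Mg(OAc)2 buffer. kobs came from exponential decay fits of normalised per-tile medians, and kcat and KM from weighted Michaelis–Menten fits.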

Variants of B1 are the subject of series [2]. Nature of the series: self-cleavage kobs at 160 uM GlcN6P; higher = faster cleavage; RNA array. Summed up:
as §1

The variants in series [3] derive from B1. Nature of the series: self-cleavage kobs at 640 uM GlcN6P; higher = faster cleavage; RNA array. Summed up:
as §1

Series [4] covers variants of B1. Nature of the series: self-cleavage kobs at 10000 uM GlcN6P; higher = faster cleavage; RNA array. Summed up:
as §1

The variants in series [5] derive from B1. Nature of the series: self-cleavage kobs at 2500 uM GlcN6P; higher = faster cleavage; RNA array. Summed up:
as §1

± gives the standard error. This sample holds only a part of the variants without activity.

C11U C58G C68U: the “self-cleavage kobs at 40 uM GlcN6P” value in the series with glucosamine-6-phosphate [1] was 7.67e-05 ± 2.5e-05 s⁻¹. Besides, in the series with glucosamine-6-phosphate [2], the “self-cleavage kobs at 160 uM GlcN6P” value came out at 0.000349 ± 9.1e-05 s⁻¹. Moreover, in the series with glucosamine-6-phosphate [3], the “self-cleavage kobs at 640 uM GlcN6P” value amounted to 0.000262 ± 7e-05 s⁻¹. Moreover, in the series with glucosamine-6-phosphate [4], the “self-cleavage kobs at 10000 uM GlcN6P” value is 5.66e-05 ± 1.6e-05 s⁻¹.
On to A15G G43U A48C, for which, in the series with glucosamine-6-phosphate [1], the “self-cleavage kobs at 40 uM GlcN6P” value was below 1e-05 s⁻¹. The “self-cleavage kobs at 2500 uM GlcN6P” value with glucosamine-6-phosphate [5] is below 1e-05 s⁻¹.
As for A6U G35C G51C U65G, the “self-cleavage kobs at 40 uM GlcN6P” value in the series with glucosamine-6-phosphate [1] is below 1e-05 s⁻¹.
Still for that read-out and setting: under A12G G35U C50U stands below 1e-05 s⁻¹.
With G44A G60A, in the series with glucosamine-6-phosphate [1], the “self-cleavage kobs at 40 uM GlcN6P” value is below 1e-05 s⁻¹. Moreover, the “self-cleavage kobs at 160 uM GlcN6P” value with glucosamine-6-phosphate [2] is below 1e-05 s⁻¹. Besides, the “self-cleavage kobs at 640 uM GlcN6P” value with glucosamine-6-phosphate [3] was below 1e-05 s⁻¹. Besides, the “self-cleavage kobs at 2500 uM GlcN6P” value with glucosamine-6-phosphate [5] is below 1e-05 s⁻¹. Also, the “self-cleavage kobs at 10000 uM GlcN6P” value with glucosamine-6-phosphate [4] is below 1e-05 s⁻¹.
Take C11G A36C U55C: in the series with glucosamine-6-phosphate [1], the “self-cleavage kobs at 40 uM GlcN6P” value was below 1e-05 s⁻¹. The “self-cleavage kobs at 640 uM GlcN6P” value with glucosamine-6-phosphate [3] is below 1e-05 s⁻¹.
In the case of C8G C67A, the “self-cleavage kobs at 40 uM GlcN6P” value in the series with glucosamine-6-phosphate [1] was below 1e-05 s⁻¹. Besides, in the series with glucosamine-6-phosphate [2], the “self-cleavage kobs at 160 uM GlcN6P” value is below 1e-05 s⁻¹. Also, in the series with glucosamine-6-phosphate [3], the “self-cleavage kobs at 640 uM GlcN6P” value was below 1e-05 s⁻¹. Further, the “self-cleavage kobs at 2500 uM GlcN6P” value with glucosamine-6-phosphate [5] is below 1e-05 s⁻¹. For the same variant, in the series with glucosamine-6-phosphate [4], the “self-cleavage kobs at 10000 uM GlcN6P” value was below 1e-05 s⁻¹.
In the case of C8A A12U A33C A39G A53C C68A, the “self-cleavage kobs at 40 uM GlcN6P” value with glucosamine-6-phosphate [1] was below 1e-05 s⁻¹.
In the case of G35A U56G, the “self-cleavage kobs at 40 uM GlcN6P” value with glucosamine-6-phosphate [1] was below 1e-05 s⁻¹. In addition, the “self-cleavage kobs at 640 uM GlcN6P” value with glucosamine-6-phosphate [3] was below 1e-05 s⁻¹. Moreover, the “self-cleavage kobs at 10000 uM GlcN6P” value in the series with glucosamine-6-phosphate [4] is below 1e-05 s⁻¹.
With A42C G51A C61U, in the series with glucosamine-6-phosphate [1], the “self-cleavage kobs at 40 uM GlcN6P” value was below 1e-05 s⁻¹. Moreover, the “self-cleavage kobs at 160 uM GlcN6P” value with glucosamine-6-phosphate [2] is below 1e-05 s⁻¹. In addition, the “self-cleavage kobs at 10000 uM GlcN6P” value in the series with glucosamine-6-phosphate [4] is below 1e-05 s⁻¹.
As to U30A C50G U54A U69G, in the series with glucosamine-6-phosphate [1], the “self-cleavage kobs at 40 uM GlcN6P” value amounted to 5.79e-05 ± 1.6e-05 s⁻¹.
Still for that read-out and setting: then C10U A12G G32U A36U C70U, with below 1e-05 s⁻¹.
For A14G C70G, the “self-cleavage kobs at 40 uM GlcN6P” value with glucosamine-6-phosphate [1] worked out at 9.61e-05 ± 1.2e-05 s⁻¹. Moreover, the “self-cleavage kobs at 160 uM GlcN6P” value with glucosamine-6-phosphate [2] was 0.000203 ± 1.9e-05 s⁻¹. For the same variant, in the series with glucosamine-6-phosphate [3], the “self-cleavage kobs at 640 uM GlcN6P” value amounted to 0.000614 ± 0.00013 s⁻¹. Besides, the “self-cleavage kobs at 2500 uM GlcN6P” value in the series with glucosamine-6-phosphate [5] turned out to be 0.0009 ± 0.00022 s⁻¹.
In the case of A6C G43U, in the series with glucosamine-6-phosphate [1], the “self-cleavage kobs at 40 uM GlcN6P” value is below 1e-05 s⁻¹. Also, the “self-cleavage kobs at 160 uM GlcN6P” value in the series with glucosamine-6-phosphate [2] is below 1e-05 s⁻¹. The “self-cleavage kobs at 640 uM GlcN6P” value in the series with glucosamine-6-phosphate [3] is below 1e-05 s⁻¹. Further, in the series with glucosamine-6-phosphate [5], the “self-cleavage kobs at 2500 uM GlcN6P” value is below 1e-05 s⁻¹. Also, in the series with glucosamine-6-phosphate [4], the “self-cleavage kobs at 10000 uM GlcN6P” value was below 1e-05 s⁻¹.
A36G A42U: in the series with glucosamine-6-phosphate [1], the “self-cleavage kobs at 40 uM GlcN6P” value is below 1e-05 s⁻¹. For the same variant, the “self-cleavage kobs at 160 uM GlcN6P” value with glucosamine-6-phosphate [2] is below 1e-05 s⁻¹. In addition, in the series with glucosamine-6-phosphate [3], the “self-cleavage kobs at 640 uM GlcN6P” value was below 1e-05 s⁻¹. In addition, the “self-cleavage kobs at 10000 uM GlcN6P” value in the series with glucosamine-6-phosphate [4] is below 1e-05 s⁻¹.
In the case of G32A G44U, the “self-cleavage kobs at 40 uM GlcN6P” value in the series with glucosamine-6-phosphate [1] was below 1e-05 s⁻¹. Moreover, the “self-cleavage kobs at 640 uM GlcN6P” value with glucosamine-6-phosphate [3] was below 1e-05 s⁻¹.
Regarding C16G G40U U65C, the “self-cleavage kobs at 40 uM GlcN6P” value in the series with glucosamine-6-phosphate [1] is below 1e-05 s⁻¹. Moreover, in the series with glucosamine-6-phosphate [3], the “self-cleavage kobs at 640 uM GlcN6P” value was below 1e-05 s⁻¹.
On to G44C C61U, for which the “self-cleavage kobs at 40 uM GlcN6P” value with glucosamine-6-phosphate [1] was below 1e-05 s⁻¹. Also, the “self-cleavage kobs at 160 uM GlcN6P” value with glucosamine-6-phosphate [2] is below 1e-05 s⁻¹. Moreover, in the series with glucosamine-6-phosphate [3], the “self-cleavage kobs at 640 uM GlcN6P” value was below 1e-05 s⁻¹. In the series with glucosamine-6-phosphate [5], the “self-cleavage kobs at 2500 uM GlcN6P” value was below 1e-05 s⁻¹. In the series with glucosamine-6-phosphate [4], the “self-cleavage kobs at 10000 uM GlcN6P” value is below 1e-05 s⁻¹.
Turning to G7U U30A, the “self-cleavage kobs at 40 uM GlcN6P” value with glucosamine-6-phosphate [1] is below 1e-05 s⁻¹. Also, the “self-cleavage kobs at 160 uM GlcN6P” value in the series with glucosamine-6-phosphate [2] is below 1e-05 s⁻¹. In the series with glucosamine-6-phosphate [3], the “self-cleavage kobs at 640 uM GlcN6P” value was below 1e-05 s⁻¹. In addition, the “self-cleavage kobs at 2500 uM GlcN6P” value in the series with glucosamine-6-phosphate [5] is below 1e-05 s⁻¹.
On to C8U G13C G51A, for which, in the series with glucosamine-6-phosphate [1], the “self-cleavage kobs at 40 uM GlcN6P” value was below 1e-05 s⁻¹. Also, the “self-cleavage kobs at 2500 uM GlcN6P” value in the series with glucosamine-6-phosphate [5] was below 1e-05 s⁻¹. Also, the “self-cleavage kobs at 10000 uM GlcN6P” value with glucosamine-6-phosphate [4] was below 1e-05 s⁻¹.
Take C10A G43U U45A: the “self-cleavage kobs at 40 uM GlcN6P” value in the series with glucosamine-6-phosphate [1] was below 1e-05 s⁻¹. In addition, the “self-cleavage kobs at 640 uM GlcN6P” value in the series with glucosamine-6-phosphate [3] was below 1e-05 s⁻¹. In the series with glucosamine-6-phosphate [5], the “self-cleavage kobs at 2500 uM GlcN6P” value was below 1e-05 s⁻¹.
For G38C G41A, the “self-cleavage kobs at 40 uM GlcN6P” value with glucosamine-6-phosphate [1] is below 1e-05 s⁻¹. Further, the “self-cleavage kobs at 160 uM GlcN6P” value with glucosamine-6-phosphate [2] was below 1e-05 s⁻¹. In addition, the “self-cleavage kobs at 640 uM GlcN6P” value with glucosamine-6-phosphate [3] is below 1e-05 s⁻¹. For the same variant, the “self-cleavage kobs at 2500 uM GlcN6P” value in the series with glucosamine-6-phosphate [5] was below 1e-05 s⁻¹. Moreover, the “self-cleavage kobs at 10000 uM GlcN6P” value with glucosamine-6-phosphate [4] is below 1e-05 s⁻¹.
